Results reported in the nanobody polyreactivity screen of Harvey et al. (2022).

assay: yeast display, Sf9 membrane polyspecificity reagent, FACS + sequencing; frameworks hold sequencing errors
Outline: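 Sorting gates, low and high (top ~1%), were placed on anti-HA fluorescence to track expression and on streptavidin fluorescence to track reagent binding. A clone's polyreactivity label is taken from the gate it came out of. The reagent was 10% biotinylated, detergent-solubilized Sf9 membrane, applied for 1 hour at 4 °C to galactose-induced yeast display cells.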

Row | Sequence | polyreactivity (PSR sort gate)
1 | QVQLVESGGGLVQAGGSLRLSCAASGNTFVSNAMGWYRQAPGKERELVAAIDSGGSTNYADSVKGRFTISRDNEKNTVYLQMKSLKPEDTAVYYCNRTSVYYYYWGQGTQVTVSS | low polyreactivity
2 | QVQLVESGGGLVQAGGSLRLSCAASGNTFVYNAMGWYRQAPGKERELVAGLTKTGGRTYYADSVKGRVTISRDNAKNTVYLQMNSLKPEETAVYYCAARPWNDGYYVGRFHMDYWGQGTQVTVSS | low polyreactivity
3 | QVQLVESGGGLVQAGGSLRLSCAASGNTFVYNDMGWYRQAPGKERELVADIRYSGSTYYADSVKGRFTISRDNAKNTVYLQMNSLKPEDTAVYYCAKAYYVLSWMGYWGQGTQVTVSS | low polyreactivity
4 | QVQLVESGGGLVQAGGSLRLSCAASGNTFWYYAMGWYRQAPGKERELVAAISWDGGITYYADSVKGRFTISRDNAKNTVYLQMNSLKPEDTAVYYCAAETNPKYRYTLDKYEYWGQGTQVTVSS | high polyreactivity
5 | QVQLVESGGGLVQAGGSLRLSCAASGNTFYGYAMGWYRQAPGKERELVASITLSGDSTYYADSVKGRFTISRDNAKNTVYLQMNSLKPEDTAVYYCGGVYTYPLGYYHYTYDYWGQGPQVTVSS | low polyreactivity
6 | QVQLVESGGGLVQAGGSLRLSCAASGNTFYGYAMGWYRQAPGKERELVASITLSGDSTYYADSVKGRFTISRDNAKNTVYLQMNSLNPEETAVYYFNAQFTPRYWGGYDSWGQGTQVTVSS | low polyreactivity
7 | QVQLVESGGGLVQAGGSLRLSCAASGNTFYGYAMGWYRQAPGKERELVASSTLSGDSTYYADSVKGRFTISRDNAKNTVYLQMNSLKPEDTAVYYCAGVYTYPLGYYHYTYDYWGQGTQVTVSS | low polyreactivity
8 | QVQLVESGGGLVQAGGSLRLSCAASGNTFYGYARGWYRQAPGKERELVASITLSGDSTYYADSVKGRFTISRDNAKNTVYLPMNSLKPEDTAVYYCNADWYFQYPYDYWGQGTQVTVSS | low polyreactivity
9 | QVQLVESGGGLVQAGGSLRLSCAASGNTFYHYVMGWYRQAPGKESELVAAISRSGGSTYYADSVKGRFTISRDNAKNTVYLQMNSLKPEDTAVYYCAARTSIGLLYDYWGQGTQVTVSS | high polyreactivity
10 | QVQLVESGGGLVQAGGSLRLSCAASGNTFYINTMGWYRQAPGKEREFVAAITWSGGPTYYADSVKGRFTISRDNAKNTVYLQMNSLKPEDTAVYYCAADSRGEDYYYWGQGTQVTVSS | high polyreactivity
11 | QVQLVESGGGLVQAGGSLRLSCAASGNTFYKNTMGWYRQAPGKERELVAAISQRGTRTYYADSVKGRFTISRDNAKNSVYLQLYSLNPEDTAVYYCATDLSQVGFDYWGQGTQVTVSS | high polyreactivity
12 | QVQLVESGGGLVQAGGSLRLSCAASGNTFYRNAMGWYRQAPGKERELVAGISNGGSTNYEDSVKGRFTISRDNAKNSVYLQMNSLKPEDTAVYYFAKDEPKVSRAFDYWGQGTQVNVSS | low polyreactivity
13 | QVQLVESGGGLVQAGGSLRLSCAASGNTFYTYAMGWYRQAPGKERELVAAITSGGRTYADSVKGRFTISRDNAKNTVYLQMNSLKPEDTEVYYCAAEFPGFYYVYPGDYWGQGTQVTVSS | low polyreactivity
14 | QVQLVESGGGLVQAGGSLRLSCAASGNTFYWYVMGWYRQAPGKERELVARITSSGGSTNYADSVKGRFTISRDNAKNTVYLQMNSLKPEDTAVYYCAADDIYLYGGGTDYYYWGQGTQVTVSS | low polyreactivity
15 | QVQLVESGGGLVQAGGSLRLSCAASGNTIIRYAMGWYRQAPGKERELVAAISYSGGRTYYADSVKGRFTISRDNAKNTVYLQMNSLKPEDTAVYYCNAASRYGGDYWGQGTQVTVSS | low polyreactivity
16 | QVQLVESGGGLVQAGGSLRLSCAASGNTIRVYAMGWYRQAPGKERELVAAITWSGSRTYYADSVKGRFTISRDNAKNTVYLQMNSLKPEDTAVYYCAARFVRPAYNYWGQGTQVTVSS | high polyreactivity
17 | QVQLVESGGGLVQAGGSLRLSCAASGNTISYYAMGWYRQAPGKERELVAAISANGGSTYYADSVKGRFTISRDNAKNTVYLQMNSLKPEDTAVYYCNRRFLSRNQNEYDYWGQGTQVTVSS | high polyreactivity
18 | QVQLVESGGGLVQAGGSLRLSCAASGNTLAANAMGWYRQAPGKERELVAAITYSGGSTYYADSVKGRFTISRDNSKNTVYLQMNSLKPLDTAVYYCAAEGYYSNYHYWGQGTQVTVSW | low polyreactivity
19 | QVQLVESGGGLVQAGGSLRLSCAASGNTLDAYAMGWYRQAPGKERELVAAITSGGSTYYADSVKGRFTISRDNAKNTVYLQMNSLKPEDTAVYYCNADGHPSDPCYDYWGQGTQVTVSS | low polyreactivity
20 | QVQLVESGGGLVQAGGSLRLSCAASGNTLDAYAMGWYRQAPGKERELVAAITSGGSTYYADSVKGRFTISRDNAKNTVYLQMNSLKPEDTAVYYCNADGHPSDPGYDYWGQGTQVTVSS | low polyreactivity
21 | QVQLVESGGGLVQAGGSLRLSCAASGNTLDVNAMGWYRQAPWKERELVAAITSGGSTNYADSVKGRFTISRDNAKNTVYLQMNSLKPEDTAVYYCAKGSGVTYVNETLNTDYGYWGQGTQVTVSS | low polyreactivity

Row | Sequence | polyreactivity (PSR sort gate)
22 | QVQLVESGGGLVQAGGSLRLSCAASGNTLIVNAMGWYRQAPGKERELVAAITRDGRTNYADSVKGRFTISRDNAKNTFYLQMNSLKPEDTAVYYCNALSADWFPEEDYWGQGTQVTVSS | low polyreactivity
23 | QVQLVESGGGLVQAGGSLRLSCAASGNTLIVNAMGWYRQAPGKETELVAAITRDGRTNYADSVKGRFTISRDNAKNTVYLQMNSLKPEDTAVYYCAAEGVPDALDRDYWGQGTQVTVSS | low polyreactivity
24 | QVQLVESGGGLVQAGGSLRLSCAASGNTLTPYTMGWYRQAPGKERELVAAINRSGGSTYYADSVKGRVTISRDNGKNTVYLQMNSLKPEDTAVYYCAAFGYYNFGYYYWGQGSQVTVSS | high polyreactivity
25 | QVQLVESGGGLVQAGGSLRLSCAASGNTLTYNVMGWYRQGPGKERELVAAISGRGGRTYYADSVKGRFTISRDNAKNTVYLQMNSLKPEATAVYDCATRDRAGYYYWGQGTQVTVSS | high polyreactivity
26 | QVQLVESGGGLVQAGGSLRLSCAASGNTLWRNAMGWSRQAPGKERELVATISSVGTYYADSVKGRFTISRDNAKNTVYLQMNSLKPEDTAVYYCAARIWAFYSRRYYWGQGTQVTVSS | high polyreactivity
27 | QVQLVESGGGLVQAGGSLRLSCAASGNTLYRNALGWYRQAPGKERELVAAIRLSGGSTYYADSVKGRFTISRDNAKNTVYLQMNSLKPEDTAVYYCAVRIRYYTGFYSWGQGTQVTVSS | high polyreactivity
28 | QVQLVESGGGLVQAGGSLRLSCAASGNTSPFYAMGWYRQAPGKERELVAAISANGGSTTYADSVKGRFTISRDNAKNTVYLQMNSLKPEDTALYYCNALSLLSDGAASVDQVTFDYWGQGTQVTVSS | low polyreactivity
29 | QVQLVESGGGLVQAGGSLRLSCAASGNTVFKNAMVWYRQAPGKERELVAAISKRGGSTYYADSVKGRFTISRDNAKNTVYIQMNSLIPEDTAVYYCAADTFGVYASTYDYWGQGTQVTVSS | high polyreactivity
30 | QVQLVESGGGLVQAGGSLRLSCAASGPIFDGYVMGWYRQAPGKERELVAAISKSGARTYYADSVKGRFTISRDNAKNTVYLQMNSLKPEHTAVYYCARFSGVDNAYDYWGQGTQVTVSS | high polyreactivity
31 | QVQLVESGGGLVQAGGSLRLSCAASGPIFKRNDMGWYRQSHGKERELVAAISGSGGRTYYADSLKGRFTISRDNAKNTVYLQMNSLKPEDTAVYYCNAGGSYYARGMDYWGQGTQVTVSS | high polyreactivity
32 | QVQLVESGGGLVQAGGSLRLSCAASGPIFRGYAMGWYRQAPGKERELVARITSGGRTYYADSVKGRFTISRDNAKNTVYLQMNSLKPEDTAVYYWATVGRGYDERHNYWGQGTQVTVSS | high polyreactivity
33 | QVQLVESGGGLVQAGGSLRLSCAASGPIFVHNAKGWYRQAPGTERELVAAISWRATRTYYADSVKGRFTISRDNAKNTVYLQMNSLKPEDTAVYYCAAVTPAYSTSTSSYDYWGQGTQVTVSS | high polyreactivity
34 | QVQLVESGGGLVQAGGSLRLSCAASGPTFLYNAMGWYRQAPGKERELVAAISRSAVSTYYADSVKGRFTISRDNAKNTVYLQINSLKPDDTAVYYCSADYRGRYATYRSYASVLYDYWGQGTQVTVSW | low polyreactivity
35 | QVQLVESGGGLVQAGGSLRLSCAASGPTFPFNAMGWYRQAPGKERELVAAISWRDGRTYYADSVKGRFTISRDYAKNTVYLQMNSLKPEDTAVYYCNVVKRRSDWGMDYWGQGTQVTVSS | high polyreactivity
36 | QVQLVESGGGLVQAGGSLRLSCAASGPTFPVKSMGWYRQAPGKERELVAAISWRDGRTYYADSVKGRFTISRDNAKNTVYLQMNSLKPEDTAVYYCNVVKRRSDWGMDYWGQGTQVTVSS | high polyreactivity
37 | QVQLVESGGGLVQAGGSLRLSCAASGPTFSQNVMGWYRQAPGKERELVAGISSGDITDYADSVKGRFTISRDNAKNTVYLQMNSPKPEDTAVYYCTYYGKSGGYRYTYYYWGQGTQVTVSS | high polyreactivity
38 | QVQLVESGGGLVQAGGSLRLSCAASGRFFRYNAMGWYRQAPGKERELVAAIRYSGTSTYYADSVKGRFTISRDNAKNTVYFQMNSLKPEDTAVYYCAAYKRYYYGYDYWGQGTQVTVSS | high polyreactivity
39 | QVQLVESGGGLVQAGGSLRLSCAASGRIDAYYAMGWYRQAPGKERELVAGISQRGSRTYYADSVKGRFTISRDNAKNTVYLQMNSLKPEDTAVYYCAARDRRSVTMDYWGQGTQVTVSS | high polyreactivity
40 | QVQLVESGGGLVQAGGSLRLSCAASGRIFAAYAMGWYRQAPGKERELVAAISWSGANTYYADSVKGRFTISRDNAKNTVYLQMNSLKPEDTAVYYCATLSKSYGVRRYKSDYWGQGTQVTVSS | high polyreactivity
41 | QVQLVESGGGLVQAGGSLRLSCAASGRIFADNAMGWYRQAPGKERELVATISRNGGRTSYADSVKGRFTISRDNAKNTVYLQMNSLNPEVTAVYYCAVRAPGSSEGYYWGQGSQVTVSS | low polyreactivity
